Test in all cases: cell-based or functional assay
The target in assay [1] is human GLP-1 receptor (human, UniProt P43220 24-463).
The target in assay [2] is T1, human GIP receptor (human, UniProt P48546 22-466).
T1 sequence (looked up): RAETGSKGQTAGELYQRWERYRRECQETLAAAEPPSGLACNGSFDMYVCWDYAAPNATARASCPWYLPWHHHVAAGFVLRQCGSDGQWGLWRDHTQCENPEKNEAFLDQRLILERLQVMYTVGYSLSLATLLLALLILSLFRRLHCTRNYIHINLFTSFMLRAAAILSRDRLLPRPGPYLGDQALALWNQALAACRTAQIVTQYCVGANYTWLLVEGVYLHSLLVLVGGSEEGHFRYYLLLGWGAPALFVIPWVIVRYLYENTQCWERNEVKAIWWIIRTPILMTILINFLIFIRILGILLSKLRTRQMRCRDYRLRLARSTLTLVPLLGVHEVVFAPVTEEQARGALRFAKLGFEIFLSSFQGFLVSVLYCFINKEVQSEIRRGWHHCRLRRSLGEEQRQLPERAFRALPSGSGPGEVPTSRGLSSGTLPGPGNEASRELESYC

Assay [3] concerns the target T2, human neuropeptide Y2 (NPY2) receptor (human, UniProt P49146 1-381).
T2 sequence (looked up): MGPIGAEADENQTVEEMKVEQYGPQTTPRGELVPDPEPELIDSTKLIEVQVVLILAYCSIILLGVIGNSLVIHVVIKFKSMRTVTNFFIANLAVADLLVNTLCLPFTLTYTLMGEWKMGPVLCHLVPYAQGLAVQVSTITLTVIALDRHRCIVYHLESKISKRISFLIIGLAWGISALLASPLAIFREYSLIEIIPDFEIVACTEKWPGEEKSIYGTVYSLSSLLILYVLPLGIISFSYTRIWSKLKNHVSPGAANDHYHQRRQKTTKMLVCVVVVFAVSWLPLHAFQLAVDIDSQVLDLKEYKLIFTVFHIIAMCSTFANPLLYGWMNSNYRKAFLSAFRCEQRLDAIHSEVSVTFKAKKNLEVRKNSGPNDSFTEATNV

Assay [4] concerns the target human GLP-1 receptor (human, UniProt P43220 24-463). This is another data set of the same source.
The target of assay [5] is T3, human GIP receptor (human, UniProt P48546 22-466).
T3 sequence (looked up): T1 sequence (looked up)
This is another data set of the same source.

In assay [6] the target is T4, human neuropeptide Y2 receptor (human, UniProt P49146 1-381).
T4 sequence (looked up): T2 sequence (looked up)

Experimental findings from US20240247080A1, “GLP1/GIP/NPY2 RECEPTOR TRIPLE AGONISTS” (Boehringer Ingelheim International GmbH, priority 2022, published 2024) are described below.

Substitutions are numbered along the chain they refer to. Starred links: 1 amine or outer side, 2 acyl side, 3 side chain; linkers in the order of their positions; H or OH if unused. Non-standard residues stand in square brackets, D forms with d. Groups on a side chain read outwards from the residue. No end group written: not given here. *: point of attachment. C18 diacid = O=C(O)CCCCCCCCCCCCCCCCC(=O)*; γGlu = O=C(O)[C@H](CCC(=O)[*:2])N[*:1]; AEEA = NCCOCCOCC(=O)O; Aib = CC(C)(N)C(=O)O

B1: Compound 80 (peptide)
peptide: YXEGTFTSDYSIXLEKQAQXAFVEWLIKGGPSYYVSLRHYYNWLTRQRY
modifications: Aib at 2, 13, 20; K28 side chain: C20DA-gGlu-gGlu-gGlu-gGlu-gGlu-gGlu-eLys; C-terminal NH2
With B1, the “EC50, CreLuc assay, 0.5% hP” value in the assay with human GLP-1 receptor [1] stood at 1.6 nM; with human GIP receptor [2] it was 0.79 nM; in assay [3] it was 12.8 nM. For the same molecule, the “EC50, CreLuc assay, 100% hP” value was 16.3 nM with human GLP-1 receptor [1], 6.76 nM with human GIP receptor [2] and 54.8 nM in assay [3].

B2: Compound 17 (peptide)
peptide: B1 peptide with Y33S, Y34G, V35A, Y41L, W43L, L44X
modifications: Aib at 2, 13, 20, 44; K28 side chain: C20DA-gGlu-gGlu-gGlu-gGlu-gGlu-gGlu-eLys; C-terminal NH2
As to B2, the “EC50, CreLuc assay, 0.5% hP” value with human GLP-1 receptor [1] was 0.14 nM; in the assay with human GIP receptor [2], 0.43 nM; in assay [3], more than 100 nM. For the same molecule, the “EC50, CreLuc assay, 100% hP” value with human GLP-1 receptor [1] came to 2.28 nM; with human GIP receptor [2] it was 2.23 nM; in assay [3] it was 450 nM.

B3: Compound 260 (peptide)
peptide: B1 peptide with Y33S, Y34G, V35A
modifications: Aib at 2, 13, 20; K28 side chain acylated with C18DA-gGlu-gGlu-gGlu-gGlu-gGlu-AHX; C-terminal amide (NH2)
As to B3, in the assay with human GLP-1 receptor [4], the “EC50 hGLP1R 0.5% hP (CreLuc)” value was found to be 0.13 nM and the “EC50 hGLP1R 100% hP (CreLuc)” value was determined as 2.78 nM. In the assay with human GIP receptor [5], the “EC50 hGIPR 0.5% hP (CreLuc)” value stood at 0.31 nM and the “EC50 hGIPR 100% hP (CreLuc)” value stood at 2.53 nM. In assay [6], the “EC50 hNPY2R 0.5% hP (CreLuc)” value amounted to 26.4 nM and the “EC50 hNPY2R 100% hP (CreLuc)” value was found to be 69.6 nM.

B4: Compound 11 (peptide)
peptide: B1 peptide with E24Q, S32E, Y33S, Y34P, V35A
modifications: Aib at 2, 13, 20; K28 side chain: C20DA-gGlu-gGlu-gGlu-gGlu-gGlu; C-terminal NH2
For B4, the “EC50, CreLuc assay, 0.5% hP” value with human GLP-1 receptor [1] was determined as 0.11 nM; with human GIP receptor [2] it was 0.17 nM; in assay [3] it was 10.3 nM. For the same molecule, the “EC50, CreLuc assay, 100% hP” value in the assay with human GLP-1 receptor [1] was 6.69 nM; with human GIP receptor [2], 2.54 nM; in assay [3] it was 51.5 nM.

B5: Compound 79 (peptide)
peptide: B1 peptide with Y33S, Y34G, V35A, W43L, L44X
modifications: Aib at 2, 13, 20, 44; K28 side chain: C20DA-gGlu-gGlu-gGlu-gGlu-gGlu-gGlu-eLys; C-terminal NH2
As for B5, the “EC50, CreLuc assay, 0.5% hP” value with human GLP-1 receptor [1] was determined as 0.11 nM; with human GIP receptor [2], 0.29 nM; in assay [3] it was 87.6 nM. In addition, the “EC50, CreLuc assay, 100% hP” value in the assay with human GLP-1 receptor [1] was 2.09 nM; with human GIP receptor [2], 1.86 nM; in assay [3] it was 265 nM.

B6: Compound 15 (peptide)
peptide: B1 peptide with E24Q, Y33S
modifications: Aib at 2, 13, 20; K28 side chain: C20DA-gGlu-gGlu-gGlu-gGlu-gGlu-gGlu-eLys; C-terminal NH2
As for B6, the “EC50, CreLuc assay, 0.5% hP” value worked out at 0.16 nM with human GLP-1 receptor [1], 0.32 nM with human GIP receptor [2] and 6.01 nM in assay [3]. The “EC50, CreLuc assay, 100% hP” value was found to be 4.11 nM with human GLP-1 receptor [1], 2.43 nM with human GIP receptor [2] and 15.4 nM in assay [3].

B7: Compound 85 (peptide)
peptide: B1 peptide with Y33S, Y34G, V35A
modifications: Aib at 2, 13, 20; NMeQ 47; K28 side chain: C20DA-gGlu-gGlu-gGlu-gGlu-gGlu-gGlu-eLys; C-terminal NH2
On to B7, for which the “EC50, CreLuc assay, 0.5% hP” value with human GLP-1 receptor [1] is 0.15 nM; in the assay with human GIP receptor [2] it was 0.22 nM; in assay [3], 10.3 nM. Besides, the “EC50, CreLuc assay, 100% hP” value in the assay with human GLP-1 receptor [1] was found to be 2.75 nM; with human GIP receptor [2], 1.11 nM; in assay [3] it was 34.4 nM.

B8: Compound 16 (peptide)
peptide: B1 peptide with K16X, Q17E, A21K, Y33S, Y34G, V35A
modifications: Aib at 2, 13, 16, 20; K28 side chain: C20DA-gGlu-gGlu-gGlu-gGlu-gGlu-gGlu-eLys; C-terminal NH2
Turning to B8, the “EC50, CreLuc assay, 0.5% hP” value with human GLP-1 receptor [1] amounted to 1.48 nM; with human GIP receptor [2], 0.66 nM; in assay [3], 28.8 nM. Moreover, the “EC50, CreLuc assay, 100% hP” value with human GLP-1 receptor [1] stood at 30.3 nM; in the assay with human GIP receptor [2], 4.53 nM; in assay [3], 197 nM.

B9: Compound 81 (peptide)
peptide: Y[Aib]EGTFTSDYSI[Aib]LEKQAQ[Aib]EFVEWLIK([AEEA-AEEA-γGlu-γGlu-γGlu-C18 diacid])GGPESGASLRHYYNWLTRQRY-NH2
modifications: also: TFA salt
Turning to B9, the entries for the “EC50, CreLuc assay, 0.5% hP” value (with human GLP-1 receptor [1]; with human GIP receptor [2]; in assay [3]) were 0.6 nM, 0.27 nM and 11.1 nM, respectively. Further, the “EC50, CreLuc assay, 100% hP” value with human GLP-1 receptor [1] was determined as 15.4 nM; in the assay with human GIP receptor [2], 1.79 nM; in assay [3], 36.4 nM.

B10: Compound 13 (peptide)
peptide: Y[Aib]EGTFTSDYSI[Aib]LEKQAQ[Aib]AFVEWLIKGGPSSGAS[Aib]RHYYNR[Aib]TRQRY-NH2
modifications: not fully specified (residue 28); also: TFA salt
Turning to B10, the entries for the “EC50, CreLuc assay, 0.5% hP” value (in the assay with human GLP-1 receptor [1]; with human GIP receptor [2]; in assay [3]) were 0.05 nM, 0.09 nM and 9.54 nM, respectively. Also, the “EC50, CreLuc assay, 100% hP” value with human GLP-1 receptor [1] turned out to be 0.92 nM; with human GIP receptor [2] it was 0.77 nM; in assay [3], 31.5 nM.
